Measurements taken from patent US20210155961.

Target: T1, LvaB (untagged)
T1 chain: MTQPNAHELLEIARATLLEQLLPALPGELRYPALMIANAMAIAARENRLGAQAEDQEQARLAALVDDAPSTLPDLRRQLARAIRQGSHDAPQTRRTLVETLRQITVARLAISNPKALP

B1: MBP-LvaA (LvaA N-terminally tagged with maltose binding protein) (protein)
chain: MSSSPTISPASDTFAAMTDDHRLAEFIREQASATRVVIQARKRLSGGAIQENWLLDLLIEGGPWAGVRRWVLRSDALSALPASLDREQEFAVLQVVYQAGVKVPRPLWLCRDVRVHGRVFFLMEYVPGSAAGRALSTGAGPQGRAQLATQLGANLARLHQVRPPCATLCFLSVPDSSPALATIDAYRRYLDTLADAYPVLEWGLRWCELHAPRSSTLCLLHRDYRTGNYLASEEGLEAVLDWEFTGWGDPCEDLGWFTARCWRFTRPDLEAGGIGQLEDFLRGYHEVSSLCIERSRLHYWQVMATLRWAVIALQQGQRHLSGEEPSLELALTARLLPELELDILHMTGAEAP
B1 was tested, and the “abundance of CoA species by LC/MS in in vitro enzyme reactions (4HV-CoA to 4PV-CoA)” value was “A decrease of 4HV-CoA and an increase of the predicted 4PV-CoA intermediate was seen only when all four of the enzymes were present”.
